The values below are quoted from earlier work in PMC7080216.

In data set [1] the target is matriptase (Homo sapiens) (UniProt Q9Y5Y6).
Data set [2] deals with cathepsin G (Homo sapiens) (UniProt P08311).
UniProt P08311, sequence (P08311 21-243): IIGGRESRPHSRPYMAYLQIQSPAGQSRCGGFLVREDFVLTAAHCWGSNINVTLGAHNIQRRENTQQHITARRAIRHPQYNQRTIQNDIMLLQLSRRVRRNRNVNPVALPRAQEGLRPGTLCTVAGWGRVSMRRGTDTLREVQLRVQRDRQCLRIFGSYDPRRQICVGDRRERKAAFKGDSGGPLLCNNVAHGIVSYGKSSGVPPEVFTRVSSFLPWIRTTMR

UniProt Q9Y5Y6, sequence (Q9Y5Y6 whole entry): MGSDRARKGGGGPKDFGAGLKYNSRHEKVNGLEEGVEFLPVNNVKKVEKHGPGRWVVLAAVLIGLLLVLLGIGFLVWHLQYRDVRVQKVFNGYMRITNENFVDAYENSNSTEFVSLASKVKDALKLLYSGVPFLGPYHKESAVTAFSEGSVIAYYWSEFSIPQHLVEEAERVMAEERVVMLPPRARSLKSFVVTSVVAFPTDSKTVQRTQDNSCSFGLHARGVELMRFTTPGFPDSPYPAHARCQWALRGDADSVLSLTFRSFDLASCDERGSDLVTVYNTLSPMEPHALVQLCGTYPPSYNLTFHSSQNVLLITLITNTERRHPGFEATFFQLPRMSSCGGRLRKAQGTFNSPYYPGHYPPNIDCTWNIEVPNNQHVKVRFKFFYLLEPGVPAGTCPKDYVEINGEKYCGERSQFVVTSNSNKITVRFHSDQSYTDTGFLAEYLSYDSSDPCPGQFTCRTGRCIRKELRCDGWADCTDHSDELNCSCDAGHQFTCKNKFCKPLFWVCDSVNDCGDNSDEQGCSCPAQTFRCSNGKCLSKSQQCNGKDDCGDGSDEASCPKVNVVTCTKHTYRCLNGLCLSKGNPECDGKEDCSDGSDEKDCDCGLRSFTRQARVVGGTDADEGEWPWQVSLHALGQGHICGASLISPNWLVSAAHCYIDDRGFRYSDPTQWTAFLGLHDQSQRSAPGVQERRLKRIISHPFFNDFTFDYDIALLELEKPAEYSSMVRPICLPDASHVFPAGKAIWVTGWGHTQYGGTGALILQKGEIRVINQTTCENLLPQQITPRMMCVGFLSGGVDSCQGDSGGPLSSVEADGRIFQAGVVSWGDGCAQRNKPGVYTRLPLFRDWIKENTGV

The Ki is a dissociation constant, usually derived from enzyme kinetics or from competition with a known ligand. Take SFTI-1 (from UniProt Q4GWU5): the Ki in data set [1] was 1 nM; in data set [2], 570 nM.
